{"source": "patent US20250223376A1", "about": "(VOYAGER THERAPEUTICS, published 2025)", "binders": {"B1": {"name": "HER-78 anti-HER2 bispecific antibody molecule (bispecific antibody)", "chain 1": "QVQLVQSGAEVKKPGASVKVSCKASGYSFTGYFINWVREAPGQGLEWMGHISSSYATSTYNQKFQGRVTFTVDTSSSTAYMELSSLRSEDTAVYYCVRSGNYEEYAMDYWGQGTLVTVSS", "chain 2": "not shown"}}, "key": {"[1]": {"target": "T1, HER2 ECD (human, UniProt P04626 23-652)", "T1 construct": "extracellular domain; also called HER2/neu; ErbB2", "experiment": "SPR Biacore 8K, captured Ab, HER2 ECD analyte; replicate 2"}, "[2]": {"target": "T1, HER2 ECD", "experiment": "SPR Biacore 8K, captured Ab, HER2 ECD analyte; printed mean"}, "[3]": {"target": "T1, HER2 ECD", "experiment": "SPR Biacore 8K, captured Ab, HER2 ECD analyte; replicate 1"}}, "note": "“And” between values parts separate entries of the source, which are not always exact repeats. Equal values may be shown once.", "data": [{"binder": "B1", "values": [{"measurement": "Kd", "setting": "[1]", "value": 0.57, "unit": "nM"}, {"measurement": "koff", "setting": "[1]", "value": "9.89e-05", "unit": "s⁻¹"}, {"measurement": "kon", "setting": "[1]", "value": 174000, "unit": "M⁻¹ s⁻¹"}, {"measurement": "Kd", "setting": "[2]", "value": "0.44 nM and 0.436 nM"}, {"measurement": "koff", "setting": "[2]", "value": "7.28e-05", "unit": "s⁻¹"}, {"measurement": "kon", "setting": "[2]", "value": 164000, "unit": "M⁻¹ s⁻¹"}, {"measurement": "Kd", "setting": "[3]", "value": "0.54 nM and 0.544 nM"}, {"measurement": "koff", "setting": "[3]", "value": "7.53e-05", "unit": "s⁻¹"}, {"measurement": "kon", "setting": "[3]", "value": 138000, "unit": "M⁻¹ s⁻¹"}]}]}
